Test results as given in US20190375786A1, “STABLE PEPTIDES AND METHODS OF USE THEREOF” (Fred Hutchinson Cancer Research Center, priority 2016, published 2019).

What was measured:
Type in all cases: cell-based
[1] = target: trypsin (Sus scrofa, UniProt P00761); assay: SDPR surface display protease resistance, anti-6xHis staining, trypsin; conditions: HEK-293 cells, up to 40 μg/ml trypsin for 20 minutes
Experimental: (§1) Soluble peptides were exposed to 500 U/mL porcine trypsin and analyzed by HPLC. Protease resistance was also assessed by using SDPR-displaying peptides. The SDPR vector is similar to the a surface display GFP FasL(SDGF) vector, but contains a C-terminal 6×His tag (SEQ ID NO: 180) and all basic or aromatic amino acid residues on the stalk removed. Protease resistance is then tested by incubation of cells displaying peptides with trypsin or chymotrypsin, followed by incubation in 10 mM DTT, and staining with an anti-6×His fluorophore-labeled antibody (“6×His” disclosed as SEQ ID NO: 180). If peptides are uncleaved, they retain the His tag and are stained with by the antibody. A control protease-sensitive knottin peptide (SK) was used as a positive control. Cells displaying peptides were treated with up to 40 μg/ml trypsin or chymotrypsin.
(§2) To determine the impact of protease treatment or reducing condition on the function of the peptides, i.e., binding activity, various binding or functional assays can be performed. […] After treatment with the protease and reducing agent, any linearized peptide product or degradation product resulting from reduction and/or proteolysis by treatment with a protease can be detected or analyzed by staining against the 6×His tag (SEQ ID NO: 180). […]

[2] = test system: chymotrypsin; assay: SDPR surface display protease resistance, anti-6xHis staining, chymotrypsin; conditions: HEK-293 cells, up to 40 μg/ml chymotrypsin for 20 minutes
Experimental: as §1, §2

[3] = test system: TEAD protein; assay: Binding of surface-displayed (SDGF) peptide to biotinylated target protein after reducing agent, flow cytometry; conditions: HEK-293 cells displaying peptide, 20 nM biotinylated target protein
Experimental: Designed or engineered peptides of this disclosure were also tested to evaluate if the peptides' binding activity to their target protein (e.g., TEAD protein) was affected by exposure to reducing conditions. HEK-293T suspension cells were transfected with a surface display GFP FasL(SDGF) vector comprising SEQ ID NO: 39 (SDGF-SEQ ID NO: 39) or SDGF vector comprising SEQ ID NO: 43 (SDGF-SEQ ID NO: 43) construct. Cultures were grown for two days, followed by incubation in 10 mM GSH or 10 mM DTT. Finally, cells were stained with biotinylated-target protein to evaluate the binding activity of a peptide to the target protein. FIG. 15 illustrates the stability of peptides of SEQ ID NO: 39 and SEQ ID NO: 43 after exposure to a reducing agent. Each peptide was expressed on a cell surface and tested for binding to a target protein after cells expressing SDGF-SEQ ID NO: 43 or SEQ ID NO: 39 were exposed to a reducing agent. FIG. 15A illustrates a flow cytometry plot showing binding of HEK-293 suspension cells transfected with SDGF-SEQ ID NO: 39 (GFP) incubated for 5 minutes in PBS, 10 mM DTT, or 10 mM reduced glutathione (GSH) before staining with 20 nM biotinylated target protein and 20 nM AF647-streptavidin. FIG. 15B illustrates a flow cytometry plot showing binding of HEK-293 suspension cells transfected with SDGF-SEQ ID NO: 43 (GFP) incubated for 5 minutes in PBS, 10 mM DTT, or 10 mM reduced glutathione (GSH) before staining with 20 nM biotinylated target protein and 20 nM AF647-streptavidin. FIG. 15C illustrates quantification of the AF647 mean fluorescence intensity (MFI) of cells falling within the “slice” gate shown in FIG. 15A and FIG. 15B. […] In other words, peptides of SEQ ID NO: 39 and SEQ ID NO: 43 were resistant to reduction by GSH.

trypsin, sequence (P00761 9-231): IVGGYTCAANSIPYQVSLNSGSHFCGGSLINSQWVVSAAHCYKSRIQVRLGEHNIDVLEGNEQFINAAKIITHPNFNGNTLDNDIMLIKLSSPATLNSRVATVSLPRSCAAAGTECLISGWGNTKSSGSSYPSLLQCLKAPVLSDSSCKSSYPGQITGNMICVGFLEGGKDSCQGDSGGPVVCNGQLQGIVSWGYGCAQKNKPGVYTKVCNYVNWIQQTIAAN

GSPDEYIERAKECCKKQDIQCCLRIFDESKDPNVMLICLFCW [SEQ ID NO: 43]
resistance of surface-displayed peptide to cleavage by trypsin [1]: partially resistant
resistance of surface-displayed peptide to cleavage by chymotrypsin [2]: partially resistant
binding to target protein after DTT treatment ([3]; 5 minutes in 10 mM DTT): no loss in binding
binding to target protein after GSH treatment ([3]; 5 minutes in 10 mM GSH): no loss in binding
